Results: patent US20130115678
Positions count from the first letter of the chain named.

Tests used:
Experiment in all cases: cleavage_in_vitro
[1] = tested on: T1, SphI (Streptomyces phaeochromogenes); conditions: NEB4, 37 C, Mg2+; FI NEB1-3: 64, 32, 64
T1 sequence: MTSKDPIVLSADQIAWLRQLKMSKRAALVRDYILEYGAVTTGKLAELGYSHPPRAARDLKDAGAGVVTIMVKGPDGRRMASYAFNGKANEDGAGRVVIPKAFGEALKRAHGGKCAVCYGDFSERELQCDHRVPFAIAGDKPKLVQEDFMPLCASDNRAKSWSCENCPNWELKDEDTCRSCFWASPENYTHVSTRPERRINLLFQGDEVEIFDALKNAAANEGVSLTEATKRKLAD

[2] = tested on: BstXI-HF N65A (Bacillus stearothermophilus); conditions: NEB4, 55 C, Mg2+; FI NEB1-3: >=120, >=250, >=16
[3] = biological target: EcoRI (Escherichia coli RY13) (UniProt P00642); conditions: NEB4, 37 C, Mg2+; FI NEB1-3: 250, 4, 250
[4] = tested on: T2, SspI (Sphaerotilus species); conditions: NEB4, 37 C, Mg2+; FI NEB1-3: 64, 16, 32
T2 sequence: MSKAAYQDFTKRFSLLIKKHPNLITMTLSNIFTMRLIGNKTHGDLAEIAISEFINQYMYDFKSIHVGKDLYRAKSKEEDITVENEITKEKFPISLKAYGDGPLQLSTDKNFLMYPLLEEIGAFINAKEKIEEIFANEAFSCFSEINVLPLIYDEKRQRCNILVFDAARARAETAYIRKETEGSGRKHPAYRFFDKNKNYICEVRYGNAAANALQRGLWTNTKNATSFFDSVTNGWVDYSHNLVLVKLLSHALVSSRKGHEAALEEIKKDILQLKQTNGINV

[5] = tested on: T3, BspQI (Bacillus sphaericus); conditions: NEB4, 50 C, Mg2+; FI NEB1-3: 2, 16, 32
T3 sequence: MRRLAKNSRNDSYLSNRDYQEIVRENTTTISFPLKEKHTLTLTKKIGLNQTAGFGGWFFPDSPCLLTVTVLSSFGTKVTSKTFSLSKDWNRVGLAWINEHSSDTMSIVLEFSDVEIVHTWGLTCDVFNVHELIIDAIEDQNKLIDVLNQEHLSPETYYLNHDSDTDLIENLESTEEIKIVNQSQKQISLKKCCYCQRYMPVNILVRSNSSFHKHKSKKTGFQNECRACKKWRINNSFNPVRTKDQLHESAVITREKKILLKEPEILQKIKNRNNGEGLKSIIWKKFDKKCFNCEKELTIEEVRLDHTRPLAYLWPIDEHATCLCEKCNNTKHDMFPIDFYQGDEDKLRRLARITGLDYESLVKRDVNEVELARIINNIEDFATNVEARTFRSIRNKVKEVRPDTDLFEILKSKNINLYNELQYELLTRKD

[6] = biological target: T4, PstI-HF D91A (Providencia stuartii 164) (UniProt P00640); conditions: NEB4, 37 C, Mg2+; FI NEB1-3: 1000, 4000, 4000
T4 sequence: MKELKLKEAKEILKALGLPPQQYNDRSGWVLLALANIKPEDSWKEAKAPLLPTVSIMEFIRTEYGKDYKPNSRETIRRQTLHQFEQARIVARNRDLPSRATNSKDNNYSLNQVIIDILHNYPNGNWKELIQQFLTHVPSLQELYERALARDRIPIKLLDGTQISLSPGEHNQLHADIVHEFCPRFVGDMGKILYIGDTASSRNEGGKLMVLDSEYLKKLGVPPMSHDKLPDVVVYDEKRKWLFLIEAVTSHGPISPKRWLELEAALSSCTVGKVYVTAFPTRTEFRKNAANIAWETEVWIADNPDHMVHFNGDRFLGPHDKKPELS

[7] = tested on: T5, SphI-HF K100A (Streptomyces phaeochromogenes); conditions: NEB4, 37 C, Mg2+; FI NEB1-3: 4000, 2000, 250
T5 sequence: T1 sequence with K100A

[8] = biological target: T6, BamHI-HF E163A/E167T (Bacillus amyloliquefaciens) (UniProt P23940); conditions: NEB4, 37 C, Mg2+; FI NEB1-3: >=4000, >=4000, >=250
T6 sequence: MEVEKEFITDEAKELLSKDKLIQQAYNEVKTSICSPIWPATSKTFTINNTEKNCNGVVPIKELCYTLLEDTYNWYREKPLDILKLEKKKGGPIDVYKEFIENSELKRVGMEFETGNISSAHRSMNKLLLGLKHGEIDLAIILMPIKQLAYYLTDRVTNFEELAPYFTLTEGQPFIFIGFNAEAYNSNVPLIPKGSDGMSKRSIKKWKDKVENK

[9] = biological target: T7, ScaI-HF H193A/S201F (Streptomyces caespitosus) (UniProt O52691); conditions: NEB4, 37 C, Mg2+; FI NEB1-3: 4000, 1000, 2000
T7 sequence: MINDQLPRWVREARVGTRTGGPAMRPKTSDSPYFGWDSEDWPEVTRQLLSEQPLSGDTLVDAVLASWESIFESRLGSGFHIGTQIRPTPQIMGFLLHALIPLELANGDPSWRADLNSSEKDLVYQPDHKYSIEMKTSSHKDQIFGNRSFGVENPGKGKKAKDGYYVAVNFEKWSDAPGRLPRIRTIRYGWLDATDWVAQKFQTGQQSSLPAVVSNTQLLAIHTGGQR

For lambda phage DNA, the activity (fidelity index) [1] was 16, the activity (fidelity index) [2] was > 250 and the activity (fidelity index) [3] was 4. For the same substance, the activity (fidelity index) [4] was 16, the activity (fidelity index) [5] was 4 and the activity (fidelity index) [6] was 4000. For the same substance, the activity (fidelity index) [7] was 8000, the activity (fidelity index) [8] was > 4000 and the activity (fidelity index) [9] was 1000.
